Target: 'Empty' HLA-DR1 purified from insect cells expressing recombinant DR1 cDNA (human)

- Ki: 33 nM
B1: Invariant Chain (Ii) 98-121 (peptide)
peptide: LPKPPKPVSKMRMATPLLMQALPM
modifications: not checked
